B1: S-adenosylmethionine lyase (SAMase) of bacteriophage T3, C-terminal His-tagged (enzyme, UniProt P07693 1-152, looked up)
chain: MIFTKEPAHVFYVLVSAFRSNLCDEVNMSRHRHMVSTLRAAPGLYGSVESTDLTGCYREAISSAPTEEKTVRVRCKDKAQALNVARLACNEWEQDCVLVYKSQTHTAGLVYAKGIDGYKAERLPGSFQEVPKGAPLQGCFTIDEFGRRWQVQ
B2: E. coli methionine S-adenosyltransferase (MAT), recombinant (enzyme)
chain: AKHLFTSESVSEGHPDKIADQISDAVLDAILEQDPKARVACETYVKTGMVLVGGEITTSAWVDIEEITRNTVREIGYVHSDMGFDANSCAVLSAIGKQSPDINQGVDRADPLEQGAGDQGLMFGYATNETDVLMPAPITYAHRLVQRQAEVRKNGTLPWLRPDAKSQVTFQYDDGKIVGIDAVVLSTQHSEEIDQKSLQEAVMEEIIKPILPAEWLTSATKFFINPTGRFVIGGPMGDCGLTGRKIIVDTYGGMARHGGGAFSGKDPSKVDRSAAYAARYVAKNIVAAGLADRCEIQVSYAIGVAEPTSIMVETFGTEKVPSEQLTLLVREFFDLRPYGLIQMLDLLHPIYKETAAYGHFGREHFPWEKTDKAQLLRDAAGLK

Key:
[1] = target: B2; assay: cryo-EM structure
cryo-EM structure = target: the molecule itself; assay: cryo-EM structure

B1
binding result [1]: binds | stoichiometry N (cryo-EM structure): 2

B2
stoichiometry N (cryo-EM structure): 4
